Measured values taken from article PMC3001161 (Molecular cell, 2010).

T1: Dcn1 potentiating neddylation (PONY) domain, Dcn1^P (budding yeast, UniProt Q12395 70-269)
T1 sequence (looked up): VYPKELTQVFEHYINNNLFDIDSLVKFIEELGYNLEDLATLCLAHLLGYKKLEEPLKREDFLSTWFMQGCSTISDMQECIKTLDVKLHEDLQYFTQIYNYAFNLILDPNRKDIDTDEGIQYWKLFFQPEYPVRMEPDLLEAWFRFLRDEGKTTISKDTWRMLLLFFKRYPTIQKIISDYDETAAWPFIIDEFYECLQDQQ

B1: Dcn1 potentiating neddylation (PONY) domain, Dcn1^P (domain or fragment)
chain: T1 sequence (looked up)
B2: full-length Dcn1 (natural protein, budding yeast, UniProt Q12395 1-269, looked up)
chain: MSNNKIKRKDASPEQEAIESFTSLTKCDPKVSRKYLQRNHWNINYALNDYYDKEIGTFTDEVSTVAHPPVYPKELTQVFEHYINNNLFDIDSLVKFIEELGYNLEDLATLCLAHLLGYKKLEEPLKREDFLSTWFMQGCSTISDMQECIKTLDVKLHEDLQYFTQIYNYAFNLILDPNRKDIDTDEGIQYWKLFFQPEYPVRMEPDLLEAWFRFLRDEGKTTISKDTWRMLLLFFKRYPTIQKIISDYDETAAWPFIIDEFYECLQDQQ
B3: isolated Cdc53 WHB subdomain (Cdc53^WHB) (domain or fragment, budding yeast, UniProt Q12018 730-815, looked up)
chain: NKRLTEDERIEKELNTERQIFLEACIVRIMKAKRNLPHTTLVNECIAQSHQRFNAKVSMVKRAIDSLIQKGYLQRGDDGESYAYLA

Experiments:
Assay in all cases: ITC
[1] = target: Cdc53^C+-Hrt1^ΔR complex (budding yeast)
[2] = target: B3
[3] = target: Cdc53^C+-Hrt1 complex (budding yeast) (UniProt Q12018)
[4] = target: T1, Dcn1 potentiating neddylation (PONY) …

Binder: B1
- stoichiometry N [1]: 1

Binder: B2
- stoichiometry N [2]: 1
- stoichiometry N [1]: 1
- stoichiometry N [3]: 1

Binder: B3
- Kd [4]: 227 nM
